From patent US20090035322A1 (Regeneron, published 2009)
Changes are numbered by the printed parent chain.

T1: human CD20 (human, UniProt P11836 1-297)
T1 construct: On human CD20-transfected MG87 cells, or endogenous on Daudi, RL and Raji cells; also called hCD20
T1 sequence: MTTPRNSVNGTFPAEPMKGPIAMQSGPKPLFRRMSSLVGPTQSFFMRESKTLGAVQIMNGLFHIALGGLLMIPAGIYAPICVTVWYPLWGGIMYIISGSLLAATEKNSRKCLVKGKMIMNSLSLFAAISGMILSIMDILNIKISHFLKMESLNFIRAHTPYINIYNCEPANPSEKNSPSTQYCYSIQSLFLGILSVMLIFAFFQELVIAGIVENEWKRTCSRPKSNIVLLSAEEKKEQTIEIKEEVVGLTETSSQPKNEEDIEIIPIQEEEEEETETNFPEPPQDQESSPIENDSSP

T2: mutant human CD20 #1 (Y77F) (human, UniProt P11836 1-297)
T2 construct: Human residues replaced by mouse residues; stably expressed on MG87 cells
T2 sequence: T1 sequence with Y77F

T3: mutant human CD20 #3 (A170S, P172S) (human, UniProt P11836 1-297)
T3 construct: Stably expressed on MG87 cells
T3 chain: T1 sequence with A170S, P172S

T4: mutant human CD20 #2 (N163D) (human, UniProt P11836 1-297)
T4 construct: Stably expressed on MG87 cells
T4 sequence: T1 sequence with N163D

T5: mutant human CD20 #6 (Y77F, N166D) (human, UniProt P11836 1-297)
T5 construct: Stably expressed on MG87 cells
T5 chain: T1 sequence with Y77F, N166D

T6: mutant human CD20 #4 (N166D) (human, UniProt P11836 1-297)
T6 construct: Stably expressed on MG87 cells
T6 sequence: T1 sequence with N166D

T7: mutant human CD20 #8 (Y77F, N163D, N166D) (human, UniProt P11836 1-297)
T7 construct: Stably expressed on MG87 cells
T7 chain: T1 sequence with Y77F, N163D, N166D

B1: 9H4-12 (antibody, V domains shown)
VH: EVQLVESGGGLVQPGRSLRLSCAASGFTFDDYAMHWVRQVPGKGLEWVSGISWNSGSIGYADSVKGRFTISRDNAKNSLYLQMNSLRAEDTALYYCAKDMGYGNYYHYGMDVWGQGTTVTVSS
VL: DIVLTQSPATLSLSPGERATLSCRASQSVSSYLAWYQQKPGQAPRLLICDASHRATRIPARFSGSGSGTDFTLTISSLEPEDFAVYYCQQRSNWPITFGQGTRLEIK
notes: Fully human IgG, constant region not specified; also called 9H4-12N
B2: 9C11-14 (antibody, V domains shown)
VH: QVQLVESGGDSVKPGGSLRLSCAASGFTFSDSYMTWIRQAPGKGLEWVSFISSSGSTIYYADSVKGRFTISRDNVKKSLYLQMNRLRAEDTAVYYCAREEPGNYVYYGMDVWGQGTTVTVSS
VL: EIVVTQSPATLSLSPGERATLSCRTSQTTTSYLAWYRQKPGQAPRLLIYDASNRAAGIPARFSGSGSGTDFTLTINSLEPEDFAVYYCQLRTNWITFGQGTRLEIK
notes: Fully human IgG, constant region not specified; also called 9C11-14N

Key:
human CD20 [1] = biological target: T1, human CD20; test: flow cytometry, hCD20-transfected MG87 cells
Description: Briefly, parental MG87 and human CD20-transfected MG87 cells were incubated for 30 min at 4° C. with each of the 15 human antibodies and the two control antibodies, followed by incubation with PE-conjugated anti-human IgG antibody. Binding was assessed by flow cytometry. Fluorescence intensities were compared with binding to the parental cell line and control isotype-matched sample.

human CD20 [2] = biological target: T1, human CD20; test: cell-based or functional assay
[3] = biological target: T2, mutant human CD20 #1 (Y77F); test: FACS, mutant-hCD20 MG87 cells; 100%=best antibody
Description: (§1) Briefly, approximately 1×10⁶ cells from each stably transfected cell line expressing a mutant human CD20 were collected and incubated with each anti-human antibody, at 10 μg/ml, on ice for 1 hr, followed by incubation with APC-conjugated goat anti-human IgG (Jackson Immunolabs), at 10 μg/ml, on ice for 45 min. For each antibody, binding to each mutant human CD20 was assessed by flow cytometry.

[4] = biological target: T3, mutant human CD20 #3 (A170S, P172S); test: FACS, mutant-hCD20 MG87 cells; 100%=best antibody
Description: as §1

[5] = biological target: T4, mutant human CD20 #2 (N163D); test: FACS, mutant-hCD20 MG87 cells; 100%=best antibody
Description: as §1

[6] = biological target: T5, mutant human CD20 #6 (Y77F, N166D); test: FACS, mutant-hCD20 MG87 cells; 100%=best antibody
Description: as §1

[7] = biological target: T6, mutant human CD20 #4 (N166D); test: FACS, mutant-hCD20 MG87 cells; 100%=best antibody
Description: as §1

[8] = biological target: T7, mutant human CD20 #8 (Y77F, N163D, …); test: FACS, mutant-hCD20 MG87 cells; 100%=best antibody
Description: as §1

Row | Binder | Total Mean Fluorescent Intensity (human CD20 [1]) | ADCC EC50 (pM), Daudi + PBMC (human CD20 [2]) | Percent of Binding to Mutant Human CD20 [3] | Percent of Binding to Mutant Human CD20 [4] | Percent of Binding to Mutant Human CD20 [5] | Percent of Binding to Mutant Human CD20 [6] | Percent of Binding to Mutant Human CD20 [7] | Percent of Binding to Mutant Human CD20 [8]
1 | B1 | 2040 | 33.8 pM | 19% | 0% | 0% | 1% | 0% | 0%
2 | B2 | 2750 | 10.2 pM | 89% | 0% | 83% | 87% | 87% | 100%
